From the nanobody polyreactivity screen of Harvey et al. (2022)

Assay: yeast display, Sf9 membrane polyspecificity reagent, FACS + sequencing; frameworks hold sequencing errors
Summary of the method: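 Using colony PCR, genes from sorted yeast display clones were amplified, then sequenced on MiSeq at 2 × 250 and filtered by CDR length. The clones had been stained with 10% biotinylated, detergent-solubilized Sf9 membrane reagent for 1 hour at 4 °C and sorted by FACS into low and high (top ~1%) gates on anti-HA and streptavidin fluorescence. Polyreactivity labels come from the gate of origin.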

Row | Sequence | polyreactivity (PSR sort gate)
1 | QVQLVESGGGLVHAGGSLRLSCAASGSIFAANAMGWYRQAPGKERELVAAISSSGDITYYADSVKGRFTISRDNAKNSVFLQMNSLKPEDTAVYYCAARRYPYHEDNYWGQGTQVTVSS | high polyreactivity
2 | QVQLVESGGGLVHAGGSLRLSCAASGSIFAGNAMGWYRQAPGNERELVAGISRSGGSTNYADSVKGRFTISRDNAKNTVYLQMIRLKPEDTAVYYFAASATPSGVGMDYWGQGTQVNVSS | low polyreactivity
3 | QVQLVESGGGLVHAGGSLRLSCAASGSIFFHNAMGWYRQAPGKERELVAAISGGGSTTYADSVKGRFTISRDNAKNTVYLQMNSLKPEDTAVYYCAKSYRYYALHYSPGWYNYWGQGTQVTVSS | high polyreactivity
4 | QVQLVESGGGLVHAGGSLRLSCAASGSIFLLYAMGWYRQAPGKERELVAAITSSGGSTNYADSVKGRFTISRDNAKNTVYLQMNSLKPEDTAVYYCATAPYAYTILGSRFDYWGQGTQVTVSS | low polyreactivity
5 | QVQLVESGGGLVHAGGSLRLSCAASGSIFQYNAMGWYRQAPWKERELVAAITSTGDTNYADSVKGRFTISRDNAKNTVYLQMNSLKPEDTAVYYCAADVYGTVRRVGWYYVGEGYDYWGQGTQVTVSS | low polyreactivity
6 | QVQLVESGGGLVHAGGSLRLSCAASGSIFRVYTMGWYRQAPGKERELVAAISRSGGRTYYADSVKGRFTISRDNAKNTVYLQMNSLKPEDTAVYYCATRPKVAYEYDYWGQGTQVTVSS | high polyreactivity
7 | QVQLVESGGGLVHAGGSLRLSCAASGSIFSAYAMGWYRQAPGKERELVAAISRSGGRTYYADSVKGRFTISRDNAKNTVYLQMNSLKPEDTAVYYCAAYFTYYSTLGRWYRYDYWGQGTQVTVSS | high polyreactivity
8 | QVQLVESGGGLVHAGGSLRLSCAASGSIFYRNVMGWYRQAPGKERELVAAISRSGGSTYYADSVKGRFTISRDNAKNTVYLQMNSLKPEDTAVYYCAVRYSPFYYWGQGTQVTVSS | high polyreactivity
9 | QVQLVESGGGLVHAGGSLRLSCAASGSTFGDNAMGWYRQAPGKERELVAAITSGTSTNYADSVKGRFTISRDNAKNTVYLQMNSLKPEDTAVYYCAAQYYGVAKQGLDEEDYWGQGTQVTVSS | low polyreactivity
10 | QVQLVESGGGLVHAGGSLRLSCAASGSTFKIYAMGLYRQAPGKERELVASIRGRGGSTYYADSVKGRFTISRDNAKNTVYLQMNSLKPEDTAVYYCNATYGHRYPACISYDYWGQGTQGTVSS | high polyreactivity
11 | QVQLVESGGGLVHAGGSLRLSCAASGSTFPGYAMGWYRQAPGKERELVAAISKRGGSTRYADSVKGRFTISRDNANNTVYLQMNSLKPEDTAVYYCAASYSYSGSGGGYWGQGTQVTVSS | high polyreactivity
12 | QVQLVESGGGLVHAGGSLRLSCAASGSTFRHNAMGWYRQAPGKERELVAAINRSGVSTHYADSVKGRFTISRDNAKNTVYLQMNSLKPEDTAVYYCAVDSYPKSLWYYGGVYSPLDYWGQGTQVTVSS | low polyreactivity
13 | QVQLVESGGGLVHAGGSLRLSCAASGSTFVEYVMGWYRQAPGKERELVASIDVGTTSTRYADSVKGRFTISRDNAKNTVYLQMNSLKPEDTAVYYCNADGYYSGYWTNYDYWGQGTQVTVSS | low polyreactivity
14 | QVQLVESGGGLVHAGGSLRLSCAASGSTLGSYAMGWYRQAPGKERELVARITTGGGTSYADSVKGRFTISRDNAKNTVYLQMNSLKPEDTAVYYCAATFIYGARTYGYWGQGTQVTVSS | high polyreactivity
15 | QVQLVESGGGLVHAGGSLRLSCADSGRIIGINAMGCYRQAPGKERELVAAINWSGGSTYYADSVKGRFTISRDNAKNTVYLQMNSLKPEDTAVYYCAAQKYKRVGYWGLGTQVTVSS | high polyreactivity
16 | QVQLVESGGGLVHAGGSLRLSCAPSRIFVYNAMGWYRQAPGKERELVATITSSGGITYYADSVKGRFTISRDNAKNTVYLQMNSLKPEDTAVYYCNKVRRYYYRTHNDFWGQGTQVTVSS | high polyreactivity

Row | Sequence | polyreactivity (PSR sort gate)
17 | QVQLVESGGGLVHAGGSLRLSCASTGFIYQPYAMGWYRQAPGKEMELVAAITSRGGRTYYADSVKGRFTISRDIANNTVYLQMNRLNPVDTAVYYCNADIYASEYYYWGQGTQVTVSS | low polyreactivity
18 | QVQLVESGGGLVHAGGSLRLSCDASGSIFDGYGMGWYRQAPGKERELVASITWNDGSTYYADSVKGRFTISRDNAKNTVYLQMNSLKPEDTAVYYCAADQWGYEYDYWGQGTQVTVSS | low polyreactivity
19 | QVQLVESGGGLVHAGGSRRLSCAASGNFFRYYVLGWYRQAPGTERECVAAITSSGGSKYYADSVKGRFTISRDNANNTVYLQMNSLKPEDTAVYYCAKDYWDPGWAEYDFWGQGTQVTVSS | low polyreactivity
20 | QVQLVESGGGLVHAGGTIEPYAMGWYRQAPGKERELVAPIRTSGGGTYYADSVKGRFTISRDNAKNTVYLQMYSLKPEDTAVYYCAAKSGPTLQRYYSYIFDYWGQGTQVTVSS | low polyreactivity
21 | QVQLVESGGGLVHAGVSLRISCAASGRIFKQYAMGWYRQAPGNERELVAAISVRGGITYYADSVKGRFTISRYHAKNTVYLQMKSLNPEDTAVYYCAKRSYRNHTYDYWGQGTQVTVSS | low polyreactivity
22 | QVQLVESGGGLVHGGGSLSLSFDASGSIFRVYPMGWYSPAPGKERELVAAIDSGPSTTYADCVTGRFTISRDNAKNTVYLLMNRLKPVDTEVYCFAADGWLWSFTGDGWWFDYWGQGTQVSVSS | low polyreactivity
23 | QVQLVESGGGLVHSGGSLRLSCAASGRIFLPYGMGWYRKAPGKERELVATITIGGSTTYADSVKGRFTISRDNAKNTVYLLMNSLKPEDTAVYYCAVLRWVYYLHGYDYWGHGTQVTVSS | low polyreactivity
24 | QVQLVESGGGLVKAGAILRLSCPASGSTFQSYAKGWSRQEPGKESELVAAISSGGITYYADSVKGRFTISRDNAKNTVYFQMNSLKPEDTAVYYCAKVPTYLISNRYSRYDYWGQGTQVTVSS | low polyreactivity
25 | QVQLVESGGGLVKAGCSLRLICAASGSIFYQYAMGWNRQAPGNVRELVAAITRRGSRTYYADSVKGRFTISRDNAKNTVYLQMNSLKPEDTAVYYCAAGSFYGIYYYRTDDYWGQGTQVTVSS | high polyreactivity
26 | QVQLVESGGGLVKAGGILRLSCAASGYIFVRYAMGWYRQAPGKERELVAAISYRGGSTYADSVKGRFTISRDNAKNTVYLQMNRLKPEDTAVYYCAAQRWYVYGQKYHYGYWGQVTQVTVSS | high polyreactivity
27 | QVQLVESGGGLVKAGGSIRLSCAASGSIFTWYAMGWYRQAPGKESELVAAISEDGGSTYYADSVKGRFTISRDNAKNSVFLQMNSLKPEDTAVYYCATPVASVTGYDYWGQGTQVTVSS | low polyreactivity
28 | QVQLVESGGGLVKAGGSLLLSCAASGRTIAYNAMGWYRQATGKERELVDAISNSGGRTYYADSVKGRFTISRDNAKNTVYLQMKSLKPEDTAVYYCAAYPVYRSVVSAYGYNYWGQGTQVTVSS | high polyreactivity
29 | QVQLVESGGGLVKAGGSLLLSCAASGSTFRVNFMGWYRKSPGKERELVAAITTSGGSKYYADSVKGRFTITRDNAKNSVFLQMNSEKLDDTAVYFCNTTYPSGWGPETDYWGQGIQVTVSS | low polyreactivity
30 | QVQLVESGGGLVKAGGSLRLRCAAAGLILYPYAMGWYRQAPGKESELVAAITSDGSTYYADSVKGRFTISRVNAKNTVYLQMNSLKQEDTAVYYCAVVVAYFDDDYGLSWFYEYDYWGQGTQVTVSS | low polyreactivity
31 | QVQLVESGGGLVKAGGSLRLSCAASGFIFGYNAMGWDRQAPGKERELVAVITDSSDSTYYADSVKGRFTISRDNAMNTVYLQMNSLKPEDTAVYYCDTDYGYAGDYWGQGTQVTVSS | low polyreactivity
